Results: PMC11946513 (The Journal of Biological Chemistry, 2025)

Target: T1, KAT6A MYST domain (KAT6A 501-784) (human, UniProt Q92794 501-784, autoacetylated K604 (as seen in the structure))
T1 construct: KAT6A (MOZ), human, acetyltransferase (MYST) domain, residues 501-784, NCBI NP_006757.2; also called pHis-MYST domain; not shown: polyhistidine, N-terminal, cleaved
Test: crystal structure; KAT6A MYST domain at 8 mg/ml complexed with H3K14-CoA in a 1:10 M ratio, 4 h at 4 °C; sitting drop, 1.25 M NH4SO4, 0.28 M NaCl, 0.1 M HEPES pH 6.4, 21 °C
Conditions: both partners purified

T1 sequence (Q92794 501-784): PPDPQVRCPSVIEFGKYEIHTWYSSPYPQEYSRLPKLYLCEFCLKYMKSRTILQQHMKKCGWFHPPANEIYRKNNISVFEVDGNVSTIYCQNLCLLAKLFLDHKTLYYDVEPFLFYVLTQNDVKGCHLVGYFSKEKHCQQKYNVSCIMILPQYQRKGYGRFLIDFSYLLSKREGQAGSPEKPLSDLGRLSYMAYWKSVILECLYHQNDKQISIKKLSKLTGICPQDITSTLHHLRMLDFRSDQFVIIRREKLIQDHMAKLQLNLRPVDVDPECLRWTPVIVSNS

- binding result: binds
B1: H3K14-CoA bisubstrate inhibitor (peptide)
peptide: QTARKSTGGKAPRKQLATK
modifications: ε-amino group of K14 covalently attached to CoA through a non-native acetyl bridge; 6-aminohexanoic acid (Ahx) linker on the N-terminus
notes: histone H3 tail, residues 5-23; Made on Rink Amide resin, so the C-terminus is probably an amide (surmised); Only residues 10-17 are resolved in the structure; also called peptidyl-CoA analogue; H3 (5-23) with K14 attached to CoA; source: synthetic peptide (manual Fmoc synthesis on Nova PEG Rink Amide, HPLC purified, coupled to Coenzyme A)
